The values that follow come from publication PMC12103069.

The target in this assay is GST-MuRF1 (MuRF1 full length, TRIM63) (Rattus norvegicus). Kind of assay: other fluorescence titration; change in the initial fluorescence of dye-labelled GST-MuRF (10 nM, constant) with a 16-sample serial dilution of the E2; MonolithX (NanoTemper), premium capillaries, 100% MST power, 25 °C; 50 mM HEPES pH 7.4, 150 mM NaCl, 0.005% Tween20, 0.1% dextran.
Chain of GST-MuRF1 (MuRF1 full length, TRIM63) (Rattus norvegicus) (Q91Z63 whole entry): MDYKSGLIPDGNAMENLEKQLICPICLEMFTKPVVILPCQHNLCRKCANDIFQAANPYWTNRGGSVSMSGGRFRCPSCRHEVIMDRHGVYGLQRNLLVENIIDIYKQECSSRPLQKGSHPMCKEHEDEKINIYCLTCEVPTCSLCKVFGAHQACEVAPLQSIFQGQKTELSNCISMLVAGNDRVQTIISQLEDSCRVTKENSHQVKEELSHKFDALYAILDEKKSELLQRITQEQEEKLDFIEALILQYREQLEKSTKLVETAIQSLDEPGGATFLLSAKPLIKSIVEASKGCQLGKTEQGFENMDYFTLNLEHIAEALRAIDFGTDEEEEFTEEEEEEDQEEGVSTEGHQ

For orientation: Kd means the concentration at which binding is half-saturated. A higher Kd goes with lower affinity. The substance “UBE2J2 cytosolic part P10A,T11A (from UniProt Q6P073 1-259) (domain or fragment)” had a dissociation constant (Kd) of 10.3 µM.

With “UBE2J2 cytosolic part N6A,R8A (from UniProt Q6P073 1-259) (domain or fragment)”, the Kd stood at 8.9 µM. Next, “UBE2J2 cytosolic part K26A (from UniProt Q6P073 1-259) (domain or fragment)”: 26 µM.
